Assay results from patent US20110118131A1 (published 2011).
Changes are numbered by the printed parent chain. Names and notes keep the numbering of the source.

B1: XPA23 light chain N30H (Fab, V domains shown)
VH: EVQLLESGGGLVQPGGSLRLSCAASGFTFSKYFMFWVRQAPGKGLEWVSVISPSGGMTRYADSVKGRFTISRDNSKNTLYLQMNSLRAEDTAVYYCARVGYGGNSDYWGQGTLVTVSS
VL: DIQMTQSPSSVSASVGDRLTIICRASQDIHRWLAWYQQTPGNAPKLLIHSATSLQSGVPSRFSGSGSGTDFTLTINSLQPEDFATYYCQQADSFPLTFGGGTKVEIK
B2: XPA23 light chain Q27K (Fab, V domains shown)
VH: B1 VH
VL: B1 VL with Q27K, H30N
B3: XPA23 light chain N30K (Fab, V domains shown)
VH: B1 VH
VL: B1 VL with H30K
B4: XPA23 light chain N30V (Fab, V domains shown)
VH: B1 VH
VL: B1 VL with H30V
B5: XPA23 light chain R31E (Fab, V domains shown)
VH: B1 VH
VL: B1 VL with H30N, R31E
B6: XPA23 light chain Q27I (Fab, V domains shown)
VH: B1 VH
VL: B1 VL with Q27I, H30N
B7: XPA23 light chain Q27W (Fab, V domains shown)
VH: B1 VH
VL: B1 VL with Q27W, H30N
B8: XPA23 light chain P95W (Fab, V domains shown)
VH: B1 VH
VL: B1 VL with H30N, P95W
B9: XPA23 light chain N30P (Fab, V domains shown)
VH: B1 VH
VL: B1 VL with H30P
B10: XPA23 light chain P95K (Fab, V domains shown)
VH: B1 VH
VL: B1 VL with H30N, P95K
B11: XPA23 light chain R31F (Fab, V domains shown)
VH: B1 VH
VL: B1 VL with H30N, R31F
B12: XPA23 light chain R31A (Fab, V domains shown)
VH: B1 VH
VL: B1 VL with H30N, R31A
B13: XPA23 light chain N30S (Fab, V domains shown)
VH: B1 VH
VL: B1 VL with H30S
B14: XPA23 light chain Q27R (Fab, V domains shown)
VH: B1 VH
VL: B1 VL with Q27R, H30N
B15: XPA23 light chain P95Q (Fab, V domains shown)
VH: B1 VH
VL: B1 VL with H30N, P95Q
B16: XPA23 light chain P95R (Fab, V domains shown)
VH: B1 VH
VL: B1 VL with H30N, P95R
B17: XPA23 light chain P95F (Fab, V domains shown)
VH: B1 VH
VL: B1 VL with H30N, P95F
B18: XPA23 light chain Q27N (Fab, V domains shown)
VH: B1 VH
VL: B1 VL with Q27N, H30N
B19: XPA23 light chain N30I (Fab, V domains shown)
VH: B1 VH
VL: B1 VL with H30I
B20: XPA23 light chain N30Q (Fab, V domains shown)
VH: B1 VH
VL: B1 VL with H30Q
B21: XPA23 light chain Q27S (Fab, V domains shown)
VH: B1 VH
VL: B1 VL with Q27S, H30N
B22: XPA23 light chain Q27H (Fab, V domains shown)
VH: B1 VH
VL: B1 VL with Q27H, H30N
B23: XPA23 light chain P95D (Fab, V domains shown)
VH: B1 VH
VL: B1 VL with H30N, P95D
B24: XPA23 light chain P95Y (Fab, V domains shown)
VH: B1 VH
VL: B1 VL with H30N, P95Y
B25: XPA23 light chain Q27F (Fab, V domains shown)
VH: B1 VH
VL: B1 VL with Q27F, H30N
B26: XPA23 light chain Q27E (Fab, V domains shown)
VH: B1 VH
VL: B1 VL with Q27E, H30N
B27: XPA23 light chain Q27G (Fab, V domains shown)
VH: B1 VH
VL: B1 VL with Q27G, H30N
B28: XPA23 light chain N30L (Fab, V domains shown)
VH: B1 VH
VL: B1 VL with H30L
B29: XPA23 light chain P95N (Fab, V domains shown)
VH: B1 VH
VL: B1 VL with H30N, P95N
B30: XPA23 light chain Q27A (Fab, V domains shown)
VH: B1 VH
VL: B1 VL with Q27A, H30N
B31: XPA23 light chain N30Y (Fab, V domains shown)
VH: B1 VH
VL: B1 VL with H30Y
B32: XPA23 light chain Q27V (Fab, V domains shown)
VH: B1 VH
VL: B1 VL with Q27V, H30N
B33: XPA23 light chain P95H (Fab, V domains shown)
VH: B1 VH
VL: B1 VL with H30N, P95H
B34: XPA23 light chain Q27P (Fab, V domains shown)
VH: B1 VH
VL: B1 VL with Q27P, H30N
B35: XPA23 light chain Q27T (Fab, V domains shown)
VH: B1 VH
VL: B1 VL with Q27T, H30N
B36: XPA23 light chain N30R (Fab, V domains shown)
VH: B1 VH
VL: B1 VL with H30R
B37: XPA23 light chain P95E (Fab, V domains shown)
VH: B1 VH
VL: B1 VL with H30N, P95E
B38: XPA23 light chain Q27D (Fab, V domains shown)
VH: B1 VH
VL: B1 VL with Q27D, H30N
B39: XPA23 light chain R31D (Fab, V domains shown)
VH: B1 VH
VL: B1 VL with H30N, R31D
B40: XPA23 light chain N30T (Fab, V domains shown)
VH: B1 VH
VL: B1 VL with H30T
B41: XPA23 light chain Q27L (Fab, V domains shown)
VH: B1 VH
VL: B1 VL with Q27L, H30N
B42: XPA23 light chain N30W (Fab, V domains shown)
VH: B1 VH
VL: B1 VL with H30W
B43: XPA23 light chain P95S (Fab, V domains shown)
VH: B1 VH
VL: B1 VL with H30N, P95S

Each binder was assayed against T1, IL-1β (UniProt P01584 117-269) (assay: Biacore, periplasmic extract).
T1 construct: Antigen immobilised on the Biacore chip

| Binder | fold difference in affinity vs original [fold] | binding result |
| --- | --- | --- |
| B1 | 1 |  |
| B2 |  | no binding |
| B3 | 0.61 |  |
| B4 | 0.89 |  |
| B5 |  | no binding |
| B6 | 0.82 |  |
| B7 |  | no binding |
| B8 |  | no binding |
| B9 | 0.69 |  |
| B10 |  | no binding |
| B11 | 0.92 |  |
| B12 | 8.48 |  |
| B13 | 0.72 |  |
| B14 | 0.89 |  |
| B15 |  | no binding |
| B16 |  | no binding |
| B17 | 0.98 |  |
| B18 |  | no binding |
| B19 | 0.65 |  |
| B20 | 0.6 |  |
| B21 | 3.3 |  |
| B22 | 1.09 |  |

| Binder | fold difference in affinity vs original [fold] | binding result |
| --- | --- | --- |
| B23 | 1.32 |  |
| B24 |  | no binding |
| B25 | 2.96 |  |
| B26 | 1.08 |  |
| B27 |  | no binding |
| B28 | 0.68 |  |
| B29 |  | no binding |
| B30 | 1.47 |  |
| B31 | 1.4 |  |
| B32 |  | no binding |
| B33 |  | no binding |
| B34 |  | no binding |
| B35 | 0.64 |  |
| B36 | 0.74 |  |
| B37 | 0.88 |  |
| B38 | 1.07 |  |
| B39 | 11.1 |  |
| B40 | 0.97 |  |
| B41 | 0.83 |  |
| B42 | 1.06 |  |
| B43 | 4.05 |  |
